Measured values: the supplement of paper PMC5998384

Columns and labels:
HeLa Kyoto [1] = assay: thermal stability score vs G1/S (z-score of summed log2 fold changes over temperatures); higher = more thermally stable than in G1/S
HeLa Kyoto [2] = assay: solubility change mitosis vs G1/S (difference of NP-40 vs SDS log2 ratios) (log2 ratio difference); higher = more soluble in mitosis
HeLa Kyoto [3] = assay: melting temperature (median over replicates), in situ; higher = more thermally stable
HeLa Kyoto [4] = assay: solubility in G1/S (NP-40 vs SDS abundance) (log2 ratio); higher = more soluble; conditions: cell cycle stage: G1/S
[5] = cell cycle stage: early G1 (4.5 h after nocodazole release)
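Throughout, for melting temperature (median over replicates), in situ: HeLa Kyoto cells synchronized by double thymidine or nocodazole block, proteins quantified by TMT10plex mass spectrometry, three independent biological replicates.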
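Throughout, for solubility change mitosis vs G1/S (difference of NP-40 vs SDS log2 ratios): synchronized HeLa Kyoto cells (double thymidine block for G1/S, nocodazole release for mitosis), protein amounts in NP-40 versus SDS lysates quantified by mass spectrometry, three biological replicates.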
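Throughout, for solubility in G1/S (NP-40 vs SDS abundance): HeLa Kyoto cells arrested at G1/S by double thymidine block, proteins quantified by TMT10plex mass spectrometry in mild NP-40 versus SDS extracts, three biological replicates.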
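Throughout, for thermal stability score vs G1/S (z-score of summed log2 fold changes over temperatures): synchronized HeLa Kyoto cells, proteins quantified by TMT10plex mass spectrometry, three biological replicates, mitosis taken 0.5 h after nocodazole release, G1/S directly after double thymidine block.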

Sequence: MRLLPRLLLLLLLVFPATVLFRGGPRGLLAVAQDLTEDEETVEDSIIEDEDDEAEVEEDEPTDLVEDKEEEDVSGEPEASPSADTTILFVKGEDFPANNIVKFLVGFTNKGTEDFIVESLDASFRYPQDYQFYIQNFTALPLNTVVPPQRQATFEYSFIPAEPMGGRPFGLVINLNYKDLNGNVFQDAVFNQTVTVIEREDGLDGETIFMYMFLAGLGLLVIVGLHQLLESRKRKRPIQKVEMGTSSQNDVDMSWIPQETLNQINKASPRRLPRKRAQKRSVGSDE [SSR1]
- thermal stability score (HeLa Kyoto [1]; [5]): 0.9
- thermal stability score (HeLa Kyoto [1]; cell cycle stage: mitosis): 0.359
- solubility change mitosis (log2) (HeLa Kyoto [2]): 0.0174
- melting temperature (HeLa Kyoto [3]; cell cycle stage: G1/S): 57.4 °C
- melting temperature (HeLa Kyoto [3]; cell cycle stage: mitosis): 58.8 °C
- solubility in G1/S (log2) (HeLa Kyoto [4]): 0.474

Sequence: MRLREPLLSGSAAMPGASLQRACRLLVAVCALHLGVTLVYYLAGRDLSRLPQLVGVSTPLQGGSNSAAAIGQSSGELRTGGARPPPPLGASSQPRPGGDSSPVVDSGPGPASNLTSVPVPHTTALSLPACPEESPLLVGPMLIEFNMPVDLELVAKQNPNVKMGGRYAPRDCVSPHKVAIIIPFRNRQEHLKYWLYYLHPVLQRQQLDYGIYVINQAGDTIFNRAKLLNVGFQEALKDYDYTCFVFSDVDLIPMNDHNAYRCFSQPRHISVAMDKFGFSLPYVQYFGGVSALSKQQFLTINGFPNNYWGWGGEDDDIFNRLVFRGMSISRPNAVVGRCRMIRHSRDKKNEPNPQRFDRIAHTKETMLSDGLNSLTYQVLDVQRYPLYTQITVDIGTPS [B4GALT1]
- thermal stability score (HeLa Kyoto [1]; [5]): -2.25
- thermal stability score (HeLa Kyoto [1]; cell cycle stage: mitosis): -1.74
- solubility change mitosis (log2) (HeLa Kyoto [2]): 0.0769
- melting temperature (HeLa Kyoto [3]; cell cycle stage: G1/S): 53.1 °C
- melting temperature (HeLa Kyoto [3]; cell cycle stage: mitosis): 54 °C
- solubility in G1/S (log2) (HeLa Kyoto [4]): -0.0686

Sequence: MRLRGCGPRAAPASSAGASDARLLAPPGRNPFVHELRLSALQKAQVALMTLTLFPVRLLVAAAMMLLAWPLALVASLGSAEKEPEQPPALWRKVVDFLLKAIMRTMWFAGGFHRVAVKGRQALPTEAAILTLAPHSSYFDAIPVTMTMSSIVMKAESRDIPIWGTLIQYIRPVFVSRSDQDSRRKTVEEIKRRAQSNGKWPQIMIFPEGTCTNRTCLITFKPGAFIPGAPVQPVVLRYPNKLDTITWTWQGPGALEILWLTLCQFHNQVEIEFLPVYSPSEEEKRNPALYASNVRRVMAEALGVSVTDYTFEDCQLALAEGQLRLPADTCLLEFARLVRGLGLKPEKLEKDLDRYSERARMKGGEKIGIAEFAASLEVPVSDLLEDMFSLFDESGSGEVDLRECVVALSVVCRPARTLDTIQLAFKMYGAQEDGSVGEGDLSCILKTALGVAELTVTDLFRAIDQEEKGKITFADFHRFAEMYPAFAEEYLYPDQTHFESCAETSPAPIPNGFCADFSPENSDAGRKPVRKKLD [LPCAT1]
- thermal stability score (HeLa Kyoto [1]; [5]): 2.41
- thermal stability score (HeLa Kyoto [1]; cell cycle stage: mitosis): 3.77
- solubility change mitosis (log2) (HeLa Kyoto [2]): -0.086
- melting temperature (HeLa Kyoto [3]; cell cycle stage: G1/S): 52 °C
- melting temperature (HeLa Kyoto [3]; cell cycle stage: mitosis): 52.6 °C
- solubility in G1/S (log2) (HeLa Kyoto [4]): -0.209

Sequence: MRLSWFRVLTVLSICLSAVATATGAEGKRKLQIGVKKRVDHCPIKSRKGDVLHMHYTGKLEDGTEFDSSLPQNQPFVFSLGTGQVIKGWDQGLLGMCEGEKRKLVIPSELGYGERGAPPKIPGGATLVFEVELLKIERRTEL [FKBP2]
- thermal stability score (HeLa Kyoto [1]; [5]): 1.33
- thermal stability score (HeLa Kyoto [1]; cell cycle stage: mitosis): 1.16
- solubility change mitosis (log2) (HeLa Kyoto [2]): -0.0211
- melting temperature (HeLa Kyoto [3]; cell cycle stage: G1/S): 53.1 °C
- melting temperature (HeLa Kyoto [3]; cell cycle stage: mitosis): 54.8 °C
- solubility in G1/S (log2) (HeLa Kyoto [4]): 0.262

Sequence: MRLTRCQAALAAAITLNLLVLFYVSWLQHQPRNSRARGPRRASAAGPRVTVLVREFEAFDNAVPELVDSFLQQDPAQPVVVAADTLPYPPLALPRIPNVRLALLQPALDRPAAASRPETYVATEFVALVPDGARAEAPGLLERMVEALRAGSARLVAAPVATANPARCLALNVSLREWTARYGAAPAAPRCDALDGDAVVLLRARDLFNLSAPLARPVGTSLFLQTALRGWAVQLLDLTFAAARQPPLATAHARWKAEREGRARRAALLRALGIRLVSWEGGRLEWFGCNKETTRCFGTVVGDTPAYLYEERWTPPCCLRALRETARYVVGVLEAAGVRYWLEGGSLLGAARHGDIIPWDYDVDLGIYLEDVGNCEQLRGAEAGSVVDERGFVWEKAVEGDFFRVQYSESNHLHVDLWPFYPRNGVMTKDTWLDHRQDVEFPEHFLQPLVPLPFAGFVAQAPNNYRRFLELKFGPGVIENPQYPNPALLSLTGSG [FKRP]
- thermal stability score (HeLa Kyoto [1]; [5]): -1.33
- thermal stability score (HeLa Kyoto [1]; cell cycle stage: mitosis): 0.366
- solubility change mitosis (log2) (HeLa Kyoto [2]): 0.00852
- melting temperature (HeLa Kyoto [3]; cell cycle stage: G1/S): 54.5 °C
- melting temperature (HeLa Kyoto [3]; cell cycle stage: mitosis): 55.1 °C
- solubility in G1/S (log2) (HeLa Kyoto [4]): 0.127

Sequence: MRPGAPGPLWPLPWGALAWAVGFVSSMGSGNPAPGGVCWLQQGQEATCSLVLQTDVTRAECCASGNIDTAWSNLTHPGNKINLLGFLGLVHCLPCKDSCDGVECGPGKACRMLGGRPRCECAPDCSGLPARLQVCGSDGATYRDECELRAARCRGHPDLSVMYRGRCRKSCEHVVCPRPQSCVVDQTGSAHCVVCRAAPCPVPSSPGQELCGNNNVTYISSCHMRQATCFLGRSIGVRHAGSCAGTPEEPPGGESAEEEENFV [FSTL3]
- thermal stability score (HeLa Kyoto [1]; [5]): 2.88
- thermal stability score (HeLa Kyoto [1]; cell cycle stage: mitosis): 2.67
- solubility change mitosis (log2) (HeLa Kyoto [2]): 0.0887
- melting temperature (HeLa Kyoto [3]; cell cycle stage: G1/S): 51.7 °C
- melting temperature (HeLa Kyoto [3]; cell cycle stage: mitosis): 54.8 °C
- solubility in G1/S (log2) (HeLa Kyoto [4]): -0.141

Sequence: MRPGGERPVEGGACNGRSELELLKLRSAECIDEAAERLGALSRAIWSQPELAYEEHHAHRVLTHFFEREPPAASWAVQPHYQLPTAFRAEWEPPEARAPSATPRPLHLGFLCEYDALPGIGHACGHNLIAEVGAAAALGVRGALEGLPRPPPPVKVVVLGTPAEEDGGGKIDLIEAGAFTNLDVVFMAHPSQENAAYLPDMAEHDVTVKYYGKASHSASYPWEGLNALDAAVLAYNNLSVFRQQMKPTWRVHGIIKNGGVKPNIIPSYSELIYYFRAPSMKELQVLTKKAEDCFRAAALASGCTVEIKGGAHDYYNVLPNKSLWKAYMENGRKLGIEFISEDTMLNGPSGSTDFGNVSFVVPGIHPYFHIGSNALNHTEQYTEAAGSQEAQFYTLRTAKALAMTALDVIFKPELLEGIREDFKLKLQEEQFVNAVE [PM20D2]
- thermal stability score (HeLa Kyoto [1]; [5]): -0.942
- thermal stability score (HeLa Kyoto [1]; cell cycle stage: mitosis): -1.84
- solubility change mitosis (log2) (HeLa Kyoto [2]): 0.0574
- melting temperature (HeLa Kyoto [3]; cell cycle stage: G1/S): 52.7 °C
- melting temperature (HeLa Kyoto [3]; cell cycle stage: mitosis): 52.2 °C
- solubility in G1/S (log2) (HeLa Kyoto [4]): 0.167

Sequence: MRPLLLLALLGWLLLAEAKGDAKPEDNLLVLTVATKETEGFRRFKRSAQFFNYKIQALGLGEDWNVEKGTSAGGGQKVRLLKKALEKHADKEDLVILFADSYDVLFASGPRELLKKFRQARSQVVFSAEELIYPDRRLETKYPVVSDGKRFLGSGGFIGYAPNLSKLVAEWEGQDSDSDQLFYTKIFLDPEKREQINITLDHRCRIFQNLDGALDEVVLKFEMGHVRARNLAYDTLPVLIHGNGPTKLQLNYLGNYIPRFWTFETGCTVCDEGLRSLKGIGDEALPTVLVGVFIEQPTPFVSLFFQRLLRLHYPQKHMRLFIHNHEQHHKAQVEEFLAQHGSEYQSVKLVGPEVRMANADARNMGADLCRQDRSCTYYFSVDADVALTEPNSLRLLIQQNKNVIAPLMTRHGRLWSNFWGALSADGYYARSEDYVDIVQGRRVGVWNVPYISNIYLIKGSALRGELQSSDLFHHSKLDPDMAFCANIRQQDVFMFLTNRHTLGHLLSLDSYRTTHLHNDLWEVFSNPEDWKEKYIHQNYTKALAGKLVETPCPDVYWFPIFTEVACDELVEEMEHFGQWSLGNNKDNRIQGGYENVPTIDIHMNQIGFEREWHKFLLEYIAPMTEKLYPGYYTRAQFDLAFVVRYKPDEQPSLMPHHDASTFTINIALNRVGVDYEGGGCRFLRYNCSIRAPRKGWTLMHPGRLTHYHEGLPTTRGTRYIAVSFVDP [PLOD1]
- thermal stability score (HeLa Kyoto [1]; [5]): 3.69
- thermal stability score (HeLa Kyoto [1]; cell cycle stage: mitosis): 3.91
- solubility change mitosis (log2) (HeLa Kyoto [2]): -0.0758
- melting temperature (HeLa Kyoto [3]; cell cycle stage: G1/S): 54.3 °C
- melting temperature (HeLa Kyoto [3]; cell cycle stage: mitosis): 54.5 °C
- solubility in G1/S (log2) (HeLa Kyoto [4]): -0.0992

Sequence: MRPLPGALGVAAAAALWLLLLLLPRTRADEHEHTYQDKEEVVLWMNTVGPYHNRQETYKYFSLPFCVGSKKSISHYHETLGEALQGVELEFSGLDIKFKDDVMPATYCEIDLDKEKRDAFVYAIKNHYWYQMYIDDLPIWGIVGEADENGEDYYLWTYKKLEIGFNGNRIVDVNLTSEGKVKLVPNTKIQMSYSVKWKKSDVKFEDRFDKYLDPSFFQHRIHWFSIFNSFMMVIFLVGLVSMILMRTLRKDYARYSKEEEMDDMDRDLGDEYGWKQVHGDVFRPSSHPLIFSSLIGSGCQIFAVSLIVIIVAMIEDLYTERGSMLSTAIFVYAATSPVNGYFGGSLYARQGGRRWIKQMFIGAFLIPAMVCGTAFFINFIAIYYHASRAIPFGTMVAVCCICFFVILPLNLVGTILGRNLSGQPNFPCRVNAVPRPIPEKKWFMEPAVIVCLGGILPFGSIFIEMYFIFTSFWAYKIYYVYGFMMLVLVILCIVTVCVTIVCTYFLLNAEDYRWQWTSFLSAASTAIYVYMYSFYYYFFKTKMYGLFQTSFYFGYMAVFSTALGIMCGAIGYMGTSAFVRKIYTNVKID [TM9SF3]
- thermal stability score (HeLa Kyoto [1]; [5]): 2.92
- thermal stability score (HeLa Kyoto [1]; cell cycle stage: mitosis): 5.14
- solubility change mitosis (log2) (HeLa Kyoto [2]): -0.173
- melting temperature (HeLa Kyoto [3]; cell cycle stage: G1/S): 53.5 °C
- melting temperature (HeLa Kyoto [3]; cell cycle stage: mitosis): 53.4 °C
- solubility in G1/S (log2) (HeLa Kyoto [4]): -0.181
